Results: US20190022179A1 (B G NEGEV TECHNOLOGIES AND APPLICATIONS, published 2019)

What was measured:
[1] = target: T1, recombinant human SOD1^G93A, 6His-tagged (N-term), expressed in E. coli (human, UniProt P00441 2-154, G93A, in the MST assay labeled with BLUE fluorescent dye NT-495-NHS (lysine chemistry)); assay: MST instrument, fluorescence change of labeled SOD1^G93A (300 nM), peptide 0-100 µM
T1 construct: Dimer by gel filtration, partially monomerizes and precipitates at 37 C; also called SOD1M; not shown: N-terminal 6His tag from pHIS1 vector
T1 sequence (P00441 2-154 G94A): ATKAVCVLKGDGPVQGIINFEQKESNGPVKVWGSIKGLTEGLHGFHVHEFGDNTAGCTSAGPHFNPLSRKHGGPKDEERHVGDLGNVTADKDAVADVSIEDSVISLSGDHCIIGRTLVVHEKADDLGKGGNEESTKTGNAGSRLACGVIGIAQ

[2] = target: T2, recombinant human SOD1^WT, 6His-tagged (N-term), expressed in E. coli (human, UniProt P00441 2-154, in the MST assay labeled with BLUE fluorescent dye NT-495-NHS (lysine chemistry)); assay: MST instrument, fluorescence change of labeled SOD1^WT (200 nM), peptide 0-100 µM
T2 construct: also called wild type SOD1; not shown: N-terminal 6His tag from pHIS1 vector
T2 sequence (P00441 2-154): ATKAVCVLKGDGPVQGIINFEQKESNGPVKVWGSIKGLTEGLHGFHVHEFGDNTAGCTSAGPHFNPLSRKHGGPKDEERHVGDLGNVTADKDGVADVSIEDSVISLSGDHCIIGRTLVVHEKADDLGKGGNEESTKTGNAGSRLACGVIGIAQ

[3] = target: T2, recombinant human SOD1^WT, 6His-tagged …; assay: MST fluorescence change, labeled SOD1^WT 200 nM
Description: The assessment of peptide binding to the proteins was carried out using Monolith NT.115 (NanoTemper Technologies, Munchen, Germany). […] The final concentration of either DMSO or DMF in the binding buffer was 1%. […] The binding data were analyzed by a non-linear regression using a logistic (three parameter) function implemented in Prism6 (GraphPad) program.
The binding of synthetic peptides to fluorescently labeled SOD1^WT or SOD1^G93A was assessed using a microscale thermophoresis technique (MST).

binding result [1]	binding result [2]	binding result [3]	Binder
binds	binds		LSGDHCIIGRTLVVHEKADD (Synthesized by GL Biochem; purity >90%) [peptide SE-12 (SOD1 aa. 106-125)]
binds		no binding (tested: peptide 0-100 µM)	DKDGVADVSIEDSVISLSGD (Synthesized by GL Biochem; purity >90%) [peptide SE-11 (SOD1 aa. 90-109)]
